Results on 30 sequences are retold here after the nanobody polyreactivity screen of Harvey et al. (2022).

The nature of the data set: yeast display, Sf9 membrane polyspecificity reagent, FACS + sequencing; frameworks hold sequencing errors. In a few lines:
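A nanobody's polyreactivity label depends on the gate it was sorted from. Yeast display cells were stained with 10% biotinylated, detergent-solubilized Sf9 membrane reagent for 1 hour at 4 °C, enriched on streptavidin microbeads and sorted by FACS. The low and high (top ~1%) gates were set on anti-HA fluorescence for expression and streptavidin fluorescence for reagent binding.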
For the sequence “QVQLVESGGGLVQAGGSLRLSCSASGSTFGRNSMGRYRQAPGKEREVVAAISWRSTRTYYADSVKGRFTISRDHAKNTVDLQMNSLKPEDNAGYYCAVYYFYPSTNCYHYDYWGQGTQVTVSS”, the “polyreactivity (PSR sort gate)” value is on record as “high polyreactivity”.

Take “QVQLVESGGGLVQAGGSLRLSCSASGSTFGRYAMGWYRQAPGKERELVAAISARGGSTYYADSVKGRFTISRDNAKNTVYLQMNSLKPEDTAVYYCNVDYLLHGGRFDYWGQGTQVTVSS”: the “polyreactivity (PSR sort gate)” value is “high polyreactivity”.

“QVQLVESGGGLVQAGGSLRLSCSASGSTFRQYAMGWYRQAPGKERELVAAITWRGDNTYYADSVKGRFTISRDNAKNTVYLQMNSLKPEDTADYYCGARWSYRLYWGYGYWGQGTQVTVSS”: the “polyreactivity (PSR sort gate)” value is listed as “low polyreactivity”.

In the case of “QVQLVESGGGLVQAGGSLRLSCSASGSTFYPYAMGWYRQAPGKERELVAAISSGGSTSYADSVKGRFTISRDNAKNTVYLQMNSLKPEDTAVYYCNASSPGAVPVYDYDYWGQGTQVTVSS”, the “polyreactivity (PSR sort gate)” value was “low polyreactivity”.

Take “QVQLVESGGGLVQAGGSLRLSCSASGYTFAWYAMGWYRQAPGKERELVAAITVSGGSTYYADSVKGRFTISRDNAKNTVYLQMNSLKPEDTAVYYCAADYAPLDLYQVSTVYSSGDYWGQGTQVTVSS”: the “polyreactivity (PSR sort gate)” value is “low polyreactivity”.

For “QVQLVESGGGLVQAGGSLRLSCSATGRIFVLYDMGWYRQAPGKERELVAGISGSGGRTYYADSVKGRFTISRDNAKNTVYLQMNSLKAEDTAVYYFNALGYYWYRPYVNSNGGYWGQGTLVTVSS”, the “polyreactivity (PSR sort gate)” value was “high polyreactivity”.

Regarding “QVQLVESGGGLVQAGGSLRLSCSDSGSTFWLNAMGWYRQPPGKEREYVAAITWSSGSTYYADSVKGSFTISRDNAKNTVYLQMNSLKPEDTAVYYCNADYYFTSYEYEYWGQGTQVTVSS”, the “polyreactivity (PSR sort gate)” value is “low polyreactivity”.

For the sequence “QVQLVESGGGLVQAGGSLRLSCSSSGRIFLNSMGWYRQAPGKEREFVAAITRSADSTYYADSVKGRFTISRDNAKNTVYLQMNSLKPEDTAVYYCNKPFPYYPDGPNGYDYWGHGTQVTVSS”, the “polyreactivity (PSR sort gate)” value is recorded as “low polyreactivity”.

With “QVQLVESGGGLVQAGGSLRLSCTASGTIVPVYAMGWYRQAPGKERELVADITYTTGSTYYAVSVKGRFTISRENAKNSVYLQMNSLKPEDTAVYYCAKDFGFQSDSWGQGTQVTVSS”, the “polyreactivity (PSR sort gate)” value is on record as “low polyreactivity”.

With “QVQLVESGGGLVQAGGSLRLSCVASGNIFVFYLMGWYRQAPGKERELVASISSTGNTYYADSVKGRFTISRDNAKNTVYLQMNSLKPEDTAVYYCAADSHQNVSGWLRWPRMDYWGQGTQVTVSS”, the “polyreactivity (PSR sort gate)” value is “low polyreactivity”.

Consider “QVQLVESGGGLVQAGGSLRLSCVASGRTFFRYAMGWYRQAPGKERELVAVITRGGSTYYADSVKGRFTISRDNAKNTVYLQMNSLKPEDTAVYYCNADGRVQRKYDYWGQGTQVTVSS”, for which the “polyreactivity (PSR sort gate)” value is “high polyreactivity”.

As to “QVQLVESGGGLVQAGGSLRLSCVASGRTLNYNVMGWYRQAPGKERELVAAISWSGGSTYADSVKGRFTISRDNAKNTVYLQMNSLKPEDTAVYYCNKRFTTRVNRRPVYYWGQGTQVTVSS”, the “polyreactivity (PSR sort gate)” value was “low polyreactivity”.

On to “QVQLVESGGGLVQAGGSLRLSCVASGSIFKQYAMGWYRQAPGKERELVAGISKTGGRTYYADSVKGRFTISRDNAKNTVYLQMNSLKPEDTAVYYCAAYFRSDYGYWGQGTQVTVSS”, for which the “polyreactivity (PSR sort gate)” value was “high polyreactivity”.

As to “QVQLVESGGGLVQAGGSLRLSCVASGSIFRGNAMGWYRQAPGKERELVASISKGGGSTYYADSVKGRFIISRDNAKNTVYLQIHSLKPEDTAVYYCYKDYDRRDFYYWGLGTQVTVSS”, the “polyreactivity (PSR sort gate)” value is recorded as “low polyreactivity”.

Consider “QVQLVESGGGLVQAGGSLRLSFAASGFIFWNYPMGWYRQAPGKERELVAAISKRGGSTYYADSVKGRFTISRDNAKHNVYLQMNSLKPEDTAVYYCNAGRTYTALNGDYWGQGTQVTVSS”, for which the “polyreactivity (PSR sort gate)” value is on record as “high polyreactivity”.

Regarding “QVQLVESGGGLVQAGGSLRLSFAASGIIFSHNVMGWYRQAPGKERELVAAITYSGGSTYYADSVKGRFTISRDNAKNTVYLLMNSLKPEDTAVYYCNALGVSRRDYDYWGQGTQVTVSS”, the “polyreactivity (PSR sort gate)” value is “low polyreactivity”.

For “QVQLVESGGGLVQAGGSLRLSFAASGITFDSYAKGWYRQAPGKERELVATISRSGTTTYYADSVKGRFTISRDNAKNTVYLQMNSLKPEDTAVYYCNTLRAYWTYHFYGAVRDGYDYWGQGTQVTVSS”, the “polyreactivity (PSR sort gate)” value was “low polyreactivity”.

“QVQLVESGGGLVQAGGSLRLSFAASGITFPYYAMGWYRQAPGKEREFVAAISSSGGSTYYADSVKGRFTISRDNAKKTVYLKMHCLKAEDTEVYYCAAGVYGRSSYSKPVLYEYWGQGTQVTVSS”: the “polyreactivity (PSR sort gate)” value is given as “high polyreactivity”.

On to “QVQLVESGGGLVQAGGSLRLSFAASGLIFSYYAMVWYRQAPGKERELVAAISSSGGSTYYADSVKGRFTISRDYAKNTVYLQMNSLKPEDTAVYYCARKLTRRFYQYDYWGQGTQVTVSS”, for which the “polyreactivity (PSR sort gate)” value is listed as “high polyreactivity”.

Turning to “QVQLVESGGGLVQAGGSLRLSFAASGRIFLRYAMVWYRHAPGKERELVAAISSRGGRTYYADSVKGRFTISRDNAKNTVYLQMNSLKPEDTAVYYCAAEGYYVTPFDYWGQGTQVTVSS”, the “polyreactivity (PSR sort gate)” value is recorded as “high polyreactivity”.

Regarding “QVQLVESGGGLVQAGGSLRLSFAASGRIFTYYAMGWYRQAPGKERELVASISRSGGNTYYADSVKGRFTISRDNAKNTVYLQMNSLKPEDTAVYYCAAVYSRLDYWGQGTQVTVSS”, the “polyreactivity (PSR sort gate)” value was “high polyreactivity”.

As for “QVQLVESGGGLVQAGGSLRLSFAASGRTFGRYAMGWYRPATGKERELVATISSRGGNTYYADSVKGRFTISRDNAQKTVYLEMNSLKAEDTAVYYCAAQTYKWYDWGQGTQVTVSS”, the “polyreactivity (PSR sort gate)” value is “high polyreactivity”.

For “QVQLVESGGGLVQAGGSLRLSFAASGRTFTWNVMGWYRQAPGKERELVAAITTDDRTYADSVKGRFTISRDNAKNTVYLQMNSLKPEDTAVYYCATVVAWSSRPVGEDYWGQGTQVTVSS”, the “polyreactivity (PSR sort gate)” value is recorded as “low polyreactivity”.

Consider “QVQLVESGGGLVQAGGSLRLSFAASGSIFPVYAMGWYKQAPGKERELVAAITTAGRTYYADSVKGRFTISRDNAKNTVYLQMNSLKPEDTAVYYCNARSRKVLTVDGGYWGQGTQVTVSS”, for which the “polyreactivity (PSR sort gate)” value is “high polyreactivity”.

With “QVQLVESGGGLVQAGGSLRLSFAASGSIFYYYVMGWYRQAPGKERELVASIRAGGDNTYYADSVKGRFTISRDSAKNTVYLQMNRLKPEDSEVYYCAKSRGRRRLYPHRYGHDYWGQGTQVTVSS”, the “polyreactivity (PSR sort gate)” value is “low polyreactivity”.

As for “QVQLVESGGGLVQAGGSLRLSFAASGSTFSRNTMGWYRQAPGKERELVAAISKSGGRTYYADSVKGRFTISRDNAKNTVYLQINSLKPEDSAVYYCNAAVYAYASDYWGQGTQVTVSS”, the “polyreactivity (PSR sort gate)” value is “high polyreactivity”.

Regarding “QVQLVESGGGLVQAGGSLRLSFAASGSTFTPNVMGWYRQAPGKERELVAAINSSGGSTFYADSVKGRFTISRDNANNTVYLQMNSLKPEDTAVYYCAASWHTPTVYDEYYYWGQGTQVNVSS”, the “polyreactivity (PSR sort gate)” value is “low polyreactivity”.

As to “QVQLVESGGGLVQAGGSLRLSFAASGSTFYYHAMGWYRQAPGKERELVAAIRSTGSTNYADSVKGRFTISRDNAKNTVYLQMNSLKPEDTAVYYCAARIRRTRGYNYWGQGTQVTVSS”, the “polyreactivity (PSR sort gate)” value is “high polyreactivity”.

Turning to “QVQLVESGGGLVQAGGSLRLSFDASGLIFWGYAMGWYRQAPGKERELVAAISSSCGSTYYADSVKGRFTISRDNAKNTVYLEMNSLQPEDTAVYYCNADYTYYPGYDFWGQGTQVTVSS”, the “polyreactivity (PSR sort gate)” value is “low polyreactivity”.

Take “QVQLVESGGGLVQAGGSLRLSGAASGFIFGSYAMGWYRQAPGKERELVAAISRSGGRTYYADSVKGRFTISRDNAKNTVYLQMNSLKPEYTAVYYCNAVGYGVFFRSSDRTKFDYWGQGTQVTVSS”: the “polyreactivity (PSR sort gate)” value was “high polyreactivity”.
